{"source": "patent US5674712", "molecular_target": "sub-unit alpha of human chorionic gonadotropin (human) (UniProt P01215)", "test": "SPR (BIACORE), alpha hCG fixed to the sensor", "data": [{"binder": "antibody scFv5E8 specific for sub-unit alpha of human chorionic gonadotropin (scFv) scFv: QVQLQQSGAELMKPGASVKLTASCSGFSIKDTYMHWVKQRPEQGLEWIGRIDPANGNTKYDPKFQGKATITADTSSNTAYLQLSSLTSEDTAVYYCHRFEFAMDYWGQGTTVTVSSGGGGSGGGGSGGGGSDIQGTQSPASLVVSLGQRATISCRASKSVSASGYSYVNWYQQKPGQPPKLLIYLASNLESGVPARFSGSGSGTDFTLNIHPVEEEDAATYYCQHSRELPLTFGAGTKLEISMEELMIEGR", "values": [{"measurement": "Kdiss, fold against MAb 5E8", "result": 300, "unit": "times"}]}]}
